Test results: article PMC11272584 (Nature Metabolism, 2024)

T1: GIPR E288G (Homo sapiens, UniProt P48546, E288G)
T1 construct: host or cells: HEK293
T1 sequence (P48546 22-466 E288G): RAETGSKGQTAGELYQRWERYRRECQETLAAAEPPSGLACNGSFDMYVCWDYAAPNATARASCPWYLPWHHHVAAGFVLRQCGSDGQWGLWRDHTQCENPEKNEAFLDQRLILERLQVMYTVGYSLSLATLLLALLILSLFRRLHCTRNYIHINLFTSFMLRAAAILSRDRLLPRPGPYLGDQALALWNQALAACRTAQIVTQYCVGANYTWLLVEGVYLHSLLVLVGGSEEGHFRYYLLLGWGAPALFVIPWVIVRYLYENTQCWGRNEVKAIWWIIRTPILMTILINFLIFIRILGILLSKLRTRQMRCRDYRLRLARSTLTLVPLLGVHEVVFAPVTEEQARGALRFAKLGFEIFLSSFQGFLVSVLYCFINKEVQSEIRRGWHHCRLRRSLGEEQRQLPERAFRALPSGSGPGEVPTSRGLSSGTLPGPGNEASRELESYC

T2: GIPR R300W (Homo sapiens, UniProt P48546, R300W)
T2 construct: host or cells: HEK293
T2 sequence (P48546 22-466 R300W): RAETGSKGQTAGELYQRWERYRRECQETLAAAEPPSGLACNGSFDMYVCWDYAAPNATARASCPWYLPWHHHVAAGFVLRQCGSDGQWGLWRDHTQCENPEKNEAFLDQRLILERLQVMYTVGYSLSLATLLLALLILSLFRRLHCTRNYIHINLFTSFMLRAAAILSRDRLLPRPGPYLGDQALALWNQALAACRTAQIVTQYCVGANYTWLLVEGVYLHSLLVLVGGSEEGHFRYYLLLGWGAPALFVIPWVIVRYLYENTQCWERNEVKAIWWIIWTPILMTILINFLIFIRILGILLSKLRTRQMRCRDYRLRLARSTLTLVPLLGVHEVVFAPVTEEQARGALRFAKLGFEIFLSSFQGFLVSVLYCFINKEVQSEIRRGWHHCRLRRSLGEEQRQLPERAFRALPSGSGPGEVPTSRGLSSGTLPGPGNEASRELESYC

T3: GIPR A294V (Homo sapiens, UniProt P48546, A294V)
T3 construct: host or cells: HEK293
T3 sequence (P48546 22-466 A294V): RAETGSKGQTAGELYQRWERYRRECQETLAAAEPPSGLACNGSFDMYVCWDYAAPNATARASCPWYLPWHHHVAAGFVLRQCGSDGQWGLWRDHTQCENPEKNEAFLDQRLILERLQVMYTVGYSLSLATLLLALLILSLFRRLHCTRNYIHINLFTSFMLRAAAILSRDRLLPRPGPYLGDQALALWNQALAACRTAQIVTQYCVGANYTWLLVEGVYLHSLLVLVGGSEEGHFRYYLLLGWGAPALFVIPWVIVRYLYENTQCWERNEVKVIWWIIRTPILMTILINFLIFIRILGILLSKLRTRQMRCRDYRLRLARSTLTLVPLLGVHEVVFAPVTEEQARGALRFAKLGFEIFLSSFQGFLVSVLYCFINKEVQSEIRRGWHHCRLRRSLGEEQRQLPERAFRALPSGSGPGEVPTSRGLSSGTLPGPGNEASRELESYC

T4: GIPR I299V (Homo sapiens, UniProt P48546, I299V)
T4 construct: host or cells: HEK293
T4 sequence (P48546 22-466 I299V): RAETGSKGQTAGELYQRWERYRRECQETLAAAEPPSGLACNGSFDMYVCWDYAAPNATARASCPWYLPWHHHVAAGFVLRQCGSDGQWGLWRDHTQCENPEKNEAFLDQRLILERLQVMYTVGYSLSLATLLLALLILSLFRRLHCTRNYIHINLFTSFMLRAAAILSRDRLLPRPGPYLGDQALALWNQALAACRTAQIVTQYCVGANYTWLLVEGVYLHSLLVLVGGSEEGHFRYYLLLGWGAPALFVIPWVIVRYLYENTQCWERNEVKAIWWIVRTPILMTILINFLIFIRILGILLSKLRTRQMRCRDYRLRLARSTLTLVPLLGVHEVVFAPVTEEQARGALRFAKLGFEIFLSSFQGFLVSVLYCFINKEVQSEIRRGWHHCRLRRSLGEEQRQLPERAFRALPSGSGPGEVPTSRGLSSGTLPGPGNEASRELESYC

T5: GIPR E291K (Homo sapiens, UniProt P48546, E291K)
T5 construct: host or cells: HEK293
T5 sequence (P48546 22-466 E291K): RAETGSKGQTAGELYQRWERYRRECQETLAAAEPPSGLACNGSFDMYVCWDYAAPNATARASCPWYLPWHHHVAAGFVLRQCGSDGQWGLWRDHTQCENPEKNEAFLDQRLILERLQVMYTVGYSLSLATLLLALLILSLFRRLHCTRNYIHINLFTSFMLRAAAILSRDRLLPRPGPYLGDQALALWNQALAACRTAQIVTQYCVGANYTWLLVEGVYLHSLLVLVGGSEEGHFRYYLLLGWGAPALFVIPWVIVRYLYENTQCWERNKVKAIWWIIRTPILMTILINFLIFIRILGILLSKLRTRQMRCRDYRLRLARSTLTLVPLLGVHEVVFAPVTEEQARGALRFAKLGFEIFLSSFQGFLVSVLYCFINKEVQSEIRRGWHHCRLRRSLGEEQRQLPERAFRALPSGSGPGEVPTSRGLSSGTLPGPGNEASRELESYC


Legend:
GIPR E288G = biological target: T1, GIPR E288G; assay: cAMP accumulation; format: cell-based
Method: (§1) HEK293 (CRL-1573, American Type Culture Collection) and β-arrestin 1/2 knockout cells, generated from HEK293A[48], were used for cAMP measurement, homologues competition binding and β-arrestin 2 recruitment. […] Both cell lines were cultured at 5% CO2 at 37 °C in Roswell Park Memorial Institute GlutaMAX-I supplemented with 10% fetal bovine serum, 180 units ml^−1 penicillin, and 45 g ml^−1 streptomycin. For the cAMP and binding experiments, cells were transfected with the calcium phosphate precipitation method[49].
cAMP production was measured with the DiscoverX Hithunter cAMP assay according to the manufacturer’s protocol (DiscoverX). […] On the day of the assay, the cells were washed twice with HEPES-buffered saline (HBS) and incubated with HBS and 1 mM 3-isobutyl-1-methylxanthine for 30 min at 37 °C. […] After the incubation, the assay medium was removed from the plate and the cells were washed with 30 µl PBS and treated with 40 µl enzyme donor–lysis buffer–chemiluminescent reagents and 10 µl cAMP antibodies for 60 min before 40 µl enzyme acceptor solution added. After a 3-h incubation on a shaking table in the dark, the cAMP accumulation was measured based on luminescence with a Perkin Elmer EnVision 2104 Multilabel Microplate Reader.

GIPR variants (groups) [1] = assay: cAMP accumulation; format: cell-based, human; settings: for In vitro groups (cAMP): cAMP part of the in vitro group; for percentage_camp: cAMP production compared with WT; for Beta, cAMP: in vitro cAMP production per GIPR variant
GIPR variants (groups) [2] = assay: β-arrestin 2 recruitment (BRET); settings: for In vitro groups (β-arrestin): arr part of the in vitro group; for Beta, Barr: in vitro β-arrestin recruitment per GIPR variant;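 on all read-outs here: BRET readout of β-arrestin 2 recruitment in transiently transfected HEK293 cells expressing WT GIPR or a GIPR variant plus GPCR kinase 2, Rluc8 donor and citrine acceptor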
GIPR R300W = biological target: T2, GIPR R300W; assay: cAMP accumulation; format: cell-based
Method: as §1
(§2) cAMP production was measured with the DiscoverX Hithunter cAMP assay according to the manufacturer’s protocol (DiscoverX). […] On the day of the assay, the cells were washed twice with HEPES-buffered saline (HBS) and incubated with HBS and 1 mM 3-isobutyl-1-methylxanthine for 30 min at 37 °C. […] After the incubation, the assay medium was removed from the plate and the cells were washed with 30 µl PBS and treated with 40 µl enzyme donor–lysis buffer–chemiluminescent reagents and 10 µl cAMP antibodies for 60 min before 40 µl enzyme acceptor solution added. After a 3-h incubation on a shaking table in the dark, the cAMP accumulation was measured based on luminescence with a Perkin Elmer EnVision 2104 Multilabel Microplate Reader. […]

GIPR A294V = biological target: T3, GIPR A294V; assay: cAMP accumulation; format: cell-based
Method: as §1, §2

GIPR I299V = biological target: T4, GIPR I299V; assay: cAMP accumulation; format: cell-based
Method: as §1, §2

GIPR E291K = biological target: T5, GIPR E291K; assay: cAMP accumulation; format: cell-based
Method: as §1, §2

Efficacy at 100pmol (cAMP) (GIPR E288G)	Efficacy at 100pmol (cAMP) (GIPR R300W)	Efficacy at 100pmol (cAMP) (GIPR A294V)	Efficacy at 100pmol (cAMP) (GIPR I299V)	Efficacy at 100pmol (cAMP) (GIPR E291K)	Molecule	In vitro groups (cAMP) (GIPR variants (groups) [1])	percentage_camp (GIPR variants (groups) [1]) [% cAMP]	Beta, cAMP (GIPR variants (groups) [1])	In vitro groups (β-arrestin) (GIPR variants (groups) [2])	Beta, Barr (GIPR variants (groups) [2])
		0.6171			A294V (protein) RAETGSKGQTAGELYQRWERYRRECQETLAAAEPPSGLACNGSFDMYVCWDYAAPNATARASCPWYLPWHHHVAAGFVLRQCGSDGQWGLWRDHTQCENPEKNEAFLDQRLILERLQVMYTVGYSLSLATLLLALLILSLFRRLHCTRNYIHINLFTSFMLRAAAILSRDRLLPRPGPYLGDQALALWNQALAACRTAQIVTQYCVGANYTWLLVEGVYLHSLLVLVGGSEEGHFRYYLLLGWGAPALFVIPWVIVRYLYENTQCWERNEVKVIWWIIRTPILMTILINFLIFIRILGILLSKLRTRQMRCRDYRLRLARSTLTLVPLLGVHEVVFAPVTEEQARGALRFAKLGFEIFLSSFQGFLVSVLYCFINKEVQSEIRRGWHHCRLRRSLGEEQRQLPERAFRALPSGSGPGEVPTSRGLSSGTLPGPGNEASRELESYC	WT-like_camp	>50	0.6171	WT-like_arr	0.6328
			1.005		I299V (protein) RAETGSKGQTAGELYQRWERYRRECQETLAAAEPPSGLACNGSFDMYVCWDYAAPNATARASCPWYLPWHHHVAAGFVLRQCGSDGQWGLWRDHTQCENPEKNEAFLDQRLILERLQVMYTVGYSLSLATLLLALLILSLFRRLHCTRNYIHINLFTSFMLRAAAILSRDRLLPRPGPYLGDQALALWNQALAACRTAQIVTQYCVGANYTWLLVEGVYLHSLLVLVGGSEEGHFRYYLLLGWGAPALFVIPWVIVRYLYENTQCWERNEVKAIWWIVRTPILMTILINFLIFIRILGILLSKLRTRQMRCRDYRLRLARSTLTLVPLLGVHEVVFAPVTEEQARGALRFAKLGFEIFLSSFQGFLVSVLYCFINKEVQSEIRRGWHHCRLRRSLGEEQRQLPERAFRALPSGSGPGEVPTSRGLSSGTLPGPGNEASRELESYC	WT-like_camp	>50	1.005	WT-like_arr	0.7578

Second part, the molecule before the results:

Molecule	Efficacy at 100pmol (cAMP) (GIPR E288G)	Efficacy at 100pmol (cAMP) (GIPR R300W)	Efficacy at 100pmol (cAMP) (GIPR A294V)	Efficacy at 100pmol (cAMP) (GIPR I299V)	Efficacy at 100pmol (cAMP) (GIPR E291K)	In vitro groups (cAMP) (GIPR variants (groups) [1])	percentage_camp (GIPR variants (groups) [1]) [% cAMP]	Beta, cAMP (GIPR variants (groups) [1])	In vitro groups (β-arrestin) (GIPR variants (groups) [2])	Beta, Barr (GIPR variants (groups) [2])
E288G (protein) RAETGSKGQTAGELYQRWERYRRECQETLAAAEPPSGLACNGSFDMYVCWDYAAPNATARASCPWYLPWHHHVAAGFVLRQCGSDGQWGLWRDHTQCENPEKNEAFLDQRLILERLQVMYTVGYSLSLATLLLALLILSLFRRLHCTRNYIHINLFTSFMLRAAAILSRDRLLPRPGPYLGDQALALWNQALAACRTAQIVTQYCVGANYTWLLVEGVYLHSLLVLVGGSEEGHFRYYLLLGWGAPALFVIPWVIVRYLYENTQCWGRNEVKAIWWIIRTPILMTILINFLIFIRILGILLSKLRTRQMRCRDYRLRLARSTLTLVPLLGVHEVVFAPVTEEQARGALRFAKLGFEIFLSSFQGFLVSVLYCFINKEVQSEIRRGWHHCRLRRSLGEEQRQLPERAFRALPSGSGPGEVPTSRGLSSGTLPGPGNEASRELESYC	0.04101					LoF_camp	<50	0.04101	LoF_arr	0.09099
R300W (protein) RAETGSKGQTAGELYQRWERYRRECQETLAAAEPPSGLACNGSFDMYVCWDYAAPNATARASCPWYLPWHHHVAAGFVLRQCGSDGQWGLWRDHTQCENPEKNEAFLDQRLILERLQVMYTVGYSLSLATLLLALLILSLFRRLHCTRNYIHINLFTSFMLRAAAILSRDRLLPRPGPYLGDQALALWNQALAACRTAQIVTQYCVGANYTWLLVEGVYLHSLLVLVGGSEEGHFRYYLLLGWGAPALFVIPWVIVRYLYENTQCWERNEVKAIWWIIWTPILMTILINFLIFIRILGILLSKLRTRQMRCRDYRLRLARSTLTLVPLLGVHEVVFAPVTEEQARGALRFAKLGFEIFLSSFQGFLVSVLYCFINKEVQSEIRRGWHHCRLRRSLGEEQRQLPERAFRALPSGSGPGEVPTSRGLSSGTLPGPGNEASRELESYC		0.0005276				LoF_camp	<50	0	LoF_arr	0
E291K (protein) RAETGSKGQTAGELYQRWERYRRECQETLAAAEPPSGLACNGSFDMYVCWDYAAPNATARASCPWYLPWHHHVAAGFVLRQCGSDGQWGLWRDHTQCENPEKNEAFLDQRLILERLQVMYTVGYSLSLATLLLALLILSLFRRLHCTRNYIHINLFTSFMLRAAAILSRDRLLPRPGPYLGDQALALWNQALAACRTAQIVTQYCVGANYTWLLVEGVYLHSLLVLVGGSEEGHFRYYLLLGWGAPALFVIPWVIVRYLYENTQCWERNKVKAIWWIIRTPILMTILINFLIFIRILGILLSKLRTRQMRCRDYRLRLARSTLTLVPLLGVHEVVFAPVTEEQARGALRFAKLGFEIFLSSFQGFLVSVLYCFINKEVQSEIRRGWHHCRLRRSLGEEQRQLPERAFRALPSGSGPGEVPTSRGLSSGTLPGPGNEASRELESYC					0.3479	LoF_camp	<50	0.3479	LoF_arr	0.1982
